One may read the stoichiometry N as a count of units in the complex or per binding partner.

The target in the assay is recombinant Myodes glareolus IFN-γ (recMgIFN-γ) (Myodes glareolus (bank vole)). Kind of assay: SEC; analytical gel filtration of 200 µl purified recMgIFN-γ in PBS at room temperature on a calibrated Superdex 75 10/300 GL column, flow rate 0.75 ml/min; detection at 230 and 260 nm. Background: Size exclusion chromatography separates by hydrodynamic size, large species first.

Take “recombinant Myodes glareolus IFN-γ (recMgIFN-γ) (natural protein)”: the stoichiometry N came to 2.
